Entries after “also recorded” stand apart in the source; their conditions may differ.
What was measured:
[1] = system: male C57BL/6 mice, cerebral ischemia/reperfusion; test: Animal model of stroke (ischemia and reperfusion, infarct volume); assay type: in vivo; conditions: mouse stroke model
Description: In this model, the middle carotid artery of a mouse is ligated and then reperfused to form an infarct.
In this model, the middle carotid artery of a mouse was ligated for 1 hour followed by 23 hours of reperfusion at which point the mice were sacrificed and the area of the infarct in the brain was assessed.
Mice were injected intraperitoneally, 1 hour after the initiation of ischemia. Mice were subjected to one hour of cerebral ischemia followed by 24 hours of reperfusion. To induce ischemia, each mouse was anesthetized and body temperature was maintained at 36-37° C. by external warming. The left common carotid artery (CCA) was exposed through a midline incision in the neck. […] After the nylon suture had been in place for 1 hour, the animal was re-anesthetized, rectal temperature was recorded and the suture was removed and the incision closed.
Infarct volume was determined by anesthetizing the animals with an intraperitoneal injection of sodium pentobarbital (50 mg/kg) and then removing the brains. […] The infarct area in each section was determined with a computer-assisted image analysis system, consisting of a Power Macintosh computer equipped with a Quick Capture frame grabber card, Hitachi CCD camera mounted on a camera stand. […] The images were captured and the total area of infarct was determined over the sections. […] The results are expressed as the mean±standard deviation (SD). […]

S100b = target: T1, S100b (Homo sapiens, UniProt P04271); test: In vitro ligand binding assay (ELISA), immobilized S100b; conditions: ligand 5 micrograms per well; dilutions of initial fusion protein solution; FIG. 7
T1 sequence (P04271 1-92): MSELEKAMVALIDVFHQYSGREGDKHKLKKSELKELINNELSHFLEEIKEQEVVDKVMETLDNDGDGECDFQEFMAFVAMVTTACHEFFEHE
Description: For example, the fusion protein may be used in a binding assay to identify potential ligands that bind to the non-immunoglobulin protein. In one example embodiment of such a binding assay, a known ligand may coated onto a solid substrate (e.g., Maxisorb plates) at a biologically relevant concentration (e.g., about 5 micrograms per well), where each well contains a total volume of about 100 microliters (μL). The plates may be incubated at 4° C. overnight to allow the ligand to bind to the substrate. Alternatively, shorter incubation periods at higher temperature (e.g., room temperature) may be used. After a period of time to allow for the ligand to bind to the substrate, the assay wells may be aspirated and a blocking buffer (e.g., 1% BSA in 50 mM imidizole buffer, pH 7.2) may be added to block nonspecific binding. […] The fusion protein bound to the immobilized ligand may be detected in a variety of ways. […] The bound complex may be detected by adding a substrate for the secondary antibody complex, e.g., the alkaline phosphatase substrate, para-nitrophenylphosphate (PNPP), and measuring conversion of PNPP to para-nitrophenol (PNP) as an increase in absorbance at 405 nm. […] In the absence of ligand (i.e., coating with only BSA) there was no increase in absorbance. The binding assay of the present invention may be used to quantify ligand binding. […]

[2] = system: Zucker diabetic rats, balloon injury of left common carotid artery; test: Diabetic rat model of restenosis (balloon injury of left common carotid artery); assay type: in vivo; conditions: for Intimal area / Medial area: IP, 21 days, mean±SD
Description: For example, fusion proteins of the present invention comprising a RAGE ligand binding site have been used in the treatment of diabetes related pathology. […] Use of the RAGE fusion proteins in the treatment of diabetes related pathology is illustrated in Table 1.
In these experiments, balloon injury of left common carotid artery was performed in Zucker diabetic and nondiabetic rats using standard procedure. […] A maintenance dose was delivered every other day until day 7 after injury (i.e., at day 1, 3, 5 and 7 after injury). The maintenance dose was high=1 mg/animal for one group, or low=0.3 mg/animal for the second group. To measure vascular smooth muscle cell (VSMC) proliferation, animals were sacrificed at 4 days and 21 days after injury.
For the measurement of cell proliferation, 4 day animals received intraperitoneal injection of bromodeoxyuridine (BrDdU) 50 mg/kg at 18, 12, and 2 hours before euthanasia. After sacrifice, the entire left and right carotid arteries were harvested. Specimens were stored in Histochoice for at least 24 hours before embedding. Assessment of VSMC proliferation was performed using mouse anti-BrdU monoclonal antibody. A fluorescence labeled goat anti-mouse secondary antibody was applied. The number of BrdU-positive nuclei per section were counted by two observers blinded to the treatment regimens.
The remaining rats were sacrificed at 21 days for morphometric analysis. Morphometric analyses were performed by an observer blinded to the study groups, using computerized digital microscopic planimetry software Image-Pro Plus on serial sections, ([…]) carotid arteries stained by Van Gieson staining All data were expressed as mean±SD. Statistical analysis was performed with use of SPSS software. Continuous variables were compared using unpaired t tests. A values of P≦0.05 was considered to be statistically significant.

Fc receptor [3] = system: Fc receptor
Description: (§1) Fc receptor activation was measured by measuring TNF-α secretion from THP-1 cells that express the Fc receptor. […] Fc stimulation results in TNF-α secretion. The amount of TNF-α was measured by an Enzyme Linked Immunoabsorbent Assay (ELISA).
(§2) Thus, in this assay, the myeloid cell line, THP-1 (ATTC #TIB-202) was maintained in RPMI-1640 media supplemented with 10% fetal bovine serum per ATCC instructions. […] The amount of TNF-alpha secreted by the THP-1 cells was measured in supernatants collected from 24 hours cultures of cells in the treated wells using a commercially available TNF ELISA kit (R&D Systems, Minneapolis, Minn. #DTA00C) per instructions.

mice that have AD = test: Mice that have Alzheimer's Disease, treated for 3 months; assay type: in vivo; conditions: versus vehicle or human IgG negative control (IgG1)
From the text: Also, fusion proteins of the present invention comprising a RAGE ligand binding site may also be used to treat reduce amyloidosis and to reduce amyloid plaques and cognitive dysfunction associated with Alzheimer's Disease (AD).

Fc receptor [4] = test: Fc receptor activation: TNF-α secretion from THP-1 cells; conditions: well precoated with 10 ug/well heat aggregated protein, 24 hours, FIG. 12
Description: as §1, §2

[5] = High dose 1.0 mg/animal qod × 4, loading dose 3 mg/animal
[6] = Low dose 0.3 mg/animal qod × 4, loading dose 3 mg/animal

B1: TTP-4000: RAGE fusion protein: V and C1 domains of human RAGE (amino acids 1-251) linked to hinge-less CH2 and CH3 of human IgG1; SEQ ID NO: 16/18 (protein)
chain 1: MAAGTAVGAWVLVLSLWGAVVGAQNITARIGEPLVLKCKGAPKKPPQRLEWKLNTGRTEAWKVLSPQGGGPWDSVARVLPNGSLFLPAVGIQDEGIFRCQAMNRNGKETKSNYRVRVYQIPGKPEIVDSASELTAGVPNKVGTCVSEGSYPAGTLSWHLDGKPLVPNEKGVSVKEQTRRHPETGLFTLQSELMVTPARGGDPRPTFSCSFSPGLPRHRALRTAPIQPRVWEPVPLEEVQLVVEPEGGAVAPPSVFLFPPKPKDTLMISRTPEVTCVVVDVSHEDPEVKFNWYVDGVEVHNAKTKPREEQYNSTYRVVSVLTVLHQDWLNGKEYKCKVSNKALPAPIEKTISKAKGQPREPQVYTLPPSRDELTKNQVSLTCLVKGFYPSDIAVEWESNGQPENNYKTTPPVLDSDGSFFLYSKLTVDKSRWQQGNVFSCSVMHEALHNHYTQKSLSLSPGK
chain 2: ENITARIGEPLVLKCKGAPKKPPQRLEWKLNTGRTEAWKVLSPQGGGPWDSVARVLPNGSLFLPAVGIQDEGIFRCQAMNRNGKETKSNYRVRVYQIPGKPEIVDSASELTAGVPNKVGTCVSEGSYPAGTLSWHLDGKPLVPNEKGVSVKEQTRRHPETGLFTLQSELMVTPARGGDPRPTFSCSFSPGLPRHRALRTAPIQPRVWEPVPLEEVQLVVEPEGGAVAPPSVFLFPPKPKDTLMISRTPEVTCVVVDVSHEDPEVKFNWYVDGVEVHNAKTKPREEQYNSTYRVVSVLTVLHQDWLNGKEYKCKVSNKALPAPIEKTISKAKGQPREPQVYTLPPSRDELTKNQVSLTCLVKGFYPSDIAVEWESNGQPENNYKTTPPVLDSDGSFFLYSKLTVDKSRWQQGNVFSCSVMHEALHNHYTQKSLSLSPGK
modifications: synthetic four domain RAGE-Fc IgG fusion protein; synthetic four domain RAGE-Fc IgG fusion protein having signal sequence removed
Q: For B1, which “reduction in infarct volume / area of infarct compared to sRAGE, in words” value [1] is on record?
A: Its value is “significantly greater reduction in infarct volume; also recorded: more efficacious than sRAGE”.

Q: And the “binding to immobilized S100b (increase in absorbance at 405 nm)” value (S100b)?
A: The value was “able to bind; also recorded: specifically interact”.

Q: And the “vascular smooth muscle cell proliferation (BrdU-positive nuclei), in words” value ([2]; 4 days after injury, dose-responsive)?
A: The value was “significantly reduced”.

Q: And the Intimal area [2, 5]?
A: Its Intimal area is 0.16 ± 0.02 mm^2.

Q: What about the Medial area [2, 5] of the same molecule?
A: The Medial area was 0.11 ± 0.01 mm^2.

Q: And the Intimal area [2, 6]?
A: The Intimal area was 0.18 ± 0.04 mm^2.

Q: And the Medial area [2, 6]?
A: Its Medial area is 0.11 ± 0.02 mm^2.

Q: What about the “stimulation of TNF-α release from cells, in words” value (Fc receptor [3]) of the same molecule?
A: Its value is “does not stimulate TNF-α release”.

Q: What about the “amyloid beta (Aβ) plaques” value (mice that have AD) of the same molecule?
A: The value was “fewer amyloid beta (Aβ) plaques”.

Q: And the cognitive dysfunction (mice that have AD)?
A: The cognitive dysfunction was “less cognitive dysfunction”.

Q: And the “TNF generated (Fc receptor activation)” value (Fc receptor [4])?
A: The value was “less than 2 ng/well”.
